Assay: label from the status in PepcDB records
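Further: failed if final PepcDB status was selected cloned or expressed and not failed if soluble or beyond.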

Sequence	protein production
MATVAECNHSVLDLVTKMATMLVADEMKPKKQTAVLVAKKRSKIYESLLHSETMSSQDKLEMLHQVTSEVAKNPDRMDMLLRFQNLLEGQDKEESEITQDQDEENQSEVVIKRIKAGPLQLIETIEIVEEALHPKAFPDINQMNRALKPLQLQPYSDILTTSNLNINFPPEKLIPKIIPSTVIRMGLSESITRMRNEMEKPMHPPPRLPVLAKKVVAPLEDERPFVAQPGPEKHFVSDKLLTNELKILRNKNLVLNYLDEATLIDHLKKAACGIESLTFPISSADKLELRVRPNTTLPTMLPEVLADFANHFIRAGCAFLRLSSRTKWNNIAEMRLERPLNRAMRETIMDYLSTTRQFLLSLQADSLFQLLNNTSTAIQLLCQLDRMFENEPRLNLNTGITGSFLLSSIWLAIDTCGNKDFLHLLIYFLRCISRNYFIQLQRWIYHGELDESVNEIFISRCLNTSPSFTNQCSKEFFDKSYQVDNEAIPEFLVGCEEEILQCGKYNLVLRAYNAQHPVFDVQYPDIVVCLTEQQLKNMRRNLADKYAIIYKRFGWCSMQSIFEDRMATKRVFANLMVKRTQAHLDAWAQKQRELQIKANAQKKLQNDQLNAEQERIQQNHLEKRRQDIVNELAFQRECERMEDKLLEREKQELQKKVVQLAAVLSSSPDRSTVSDLSFASCIEEPDCLAESSSDKDDANTENSEDEATKQLDKTLNVPLEQPEAEYQADVDVDQPRGKECSLPNVFQYQRSHSDVINSNEHPTTQAEFNRNRQHGLSSDQFQQCHATVHLQESDLLKTAASTSSGLHAEIPQDINANLNCPDTKELTELQRNRKRNEHHDGFFSFNSTEDEHTHRLRSLLNSNTERGRNRLRVMETEFGLGYKNTDIETKATPCLPLEIDKLHVEIPLAVLTPMSTTSDVDFGDPSPRELPEIADTANNNNVSGSIESLSPELPKPVLAIAKPTSLLPKLDFGMKDERETEQDRDKVSTLPEACNPFMARRCLQLSVMAPLNAYYGLLRNEVLRIFQEQRIYEHFRKLRNYFFLVDGQFGATLTNEILGRIRAGVGPRSLSQKGILDTILTNALAACSADETTVSENLTLNCTTIPDTLNFLSVEATSMLKLNCKIDWPLNMVISSETISKYGQIFGYLLKLRHVSFVLDGTYEYLQQMGKLLGPELRTCTHFRHMQMMRHKMSHFMTSFQTHLVAKALLSTWKSFKEELCTADSIEALYKQHVAYLKRVAFLALLNRRSAKVKETIDNILVIILRFCKVIQSQSFIVDQDNYFVHPRFKRLQQEEAEFEKFLQYLIYLGNKAAASGYQEEIGDLICIINFNHYYKVSGNHTGSSMEDKKC	failed
MATVRLVTRKRAGRSSRPSAASLPARSAVERNSSGPLLSKSRYVRIMAARRSSSLRQQQGRLEWGGRSRPVELATRSFEKQGDATAFFKAMLNRHQPGERVSDEDGLDVAALLERHTEYVAKVGCGVSHFQVMMTEHGTQCFRIIRTDGSGTDFSYPHCISQRPPSRKQEVAQAFRRAVRFDLYKARDNLFATHSGSDGLVSCAVTGERIAQDEGHMDHRPPMTFEVIVTTFLCGRGLSLDNVPLTTGKDDQVSPEVTDNALSEAFRAYHAGIARLDFVRNTVNLAQASRHRLKDGRITLTG	failed
MAVAALLPQRPTSLEISMEGETFLWLIRHAPVDGVAGTIHAPDAPADLGDRAQLQALRQRLPRDSASYASPSRRTVETARALGLEPDLVGNFSEQDFGDWTGRRHDELAASGGEAYAQFWGDPAHARPPGGESFEDQVARVRHGLSRIGAGPATLVVHSGTIRAALCIALDLAPQSALRFVIDPLSLTRIDRLATGWRVVSVNQRVV	failed
MAVAQADPGSDPAGGARFFCTAGRGLEPFLMREVRARLEATQVEYISGKVFFTTCSDLPSMKKLKSAERLFVLIKKQLPIAVSSLHKGKILNEMQRFVNDDPGSWLEAISLWKKLLEHDPKREKVSQRDANPLKRKAGENETIIAKKLKVEEKQEVAKDHGESQEDKLLQGSPEQGEAVTRTELQDHRLNSTTEKAADAQDQEDLTFRVSCRCTGNVRKVITGQEAGRVIGLALMRQFGWKADLRNPNIEIFMHLSDAYSVVGIPLLRMPLASRTYIQTAGLRSTIAWAMASIAEIKAGALVLDPMCGLGTILVEAAEEWPDVFYMGADMSDAQLLGACDNLKAAGLTDRIELLKSSVTDLPLPSQSTDVIISDIPFGKKFKLGKDIKSILQEMERVLRVGGAMVLLLSEDHHRHLTDCGGSSIPLTSKGHIAEPEMKTLSNPDRTGAPDTASPSQRASSVQCLGRMRPCGSLVPVESFKVSLGKTDAFICKYKKAQASGLSSAECHEPGAHTEMAAMQESPSLQDSL	failed
MAVISPATRFAPPLNRPFHRRSILASFHSSSRNFLFLGKPTPSSTIVSVRCQKPVSDGVSSMESMNHVASSVSSSIDFLTLCHRLKGINGPESIADHMYRMALMALIAGDLTGVDRERCIKMAIVHDIAEAIVGDITPSDGVPKEEKSRRETAALKEMCEVLGGGLRAEEITELWLEYENNASLEANIVKDFDKVEMILQALEYEAEHGKVLDEFFISTAGKFQTEIGKSWAAEINARRKSQLTNRQR	failed
MAVKFFGQFLVEKGVVSRETLLQAIELQESVNLSFGATSLAMGILTEADIERIHNAQRIEDLRFGDMAVKLGLLTSEQMMQVLTRQKNTHLYIGEALVKVGSFQADELPKYLEEFKADQAQYATDTVVIPTGVSEPKIWEMVADLSYKMLTRVALLVFRPEPCFVADRVPAMDVYATMDFTGDISGRYFMGVTAATQKKIAKAILKEPNVDNEPKEILDDTVMEFVNVALGNIAAKAAQSGKSMEIAPPEIIEAPDGIQVPDGHKALCFPVCLSDGDRIELAVFIQQLEHHHHHH	not failed
MAVMDPWLIWLIVSAVLVLAEIFTLTAALGMLGVAALITAGSAAAGLSTPFQFLVFTVVSAVTLFFLRPVALRHLVQPQTQRFGVDALVGQAAYVVSDVTGREGRVRIGGEEWTARSYDETLVIPRGATVDVLEISGTTAFVYPRE	failed
MAVNACLSPPEMMAVRPGEGVPNSKSTQGKTRLYLTKPSWIVRTQSGAKTCMKSKAKGRCVICHGSGRVDCFNCCGKGRTNCVDVEMLPRGEWPKWCKSCGGSGLSDCSRCLGTGERASFFFLWFDILIVMSSVALPAMSCRSSGEQVKEIRVCTNRTCRRQGSFQILETLTALAPPELRVTHCACLGRCGSGPNLVALPQGLILRHCATPSRAAEILFSLCGDGREASSSSAVTDALTALALTNNALSQIDAGNFSEAEALLTQALELKPYGGLHRIFKHRSVAKLGMLDYSGALEDISQALALAPNYSEPYICQGDVYVAKGQYDLAEKSYLTCLEIDPSLRRSKPFKARIAKLQQKVVELDVT	failed
MAVPRWAVRDLTQISSARELSLRLEQARNDFRATVGSICYFNASARTPGQFDDEYIMTDQSLTYVYADGVTAQSCAMNRLLPSSSSNFGAAATAIPPWLLDPPRLNRLLREGTDEGGLVNYYEGPHKNAFFLAIMRSCIFVRPGADEINGVSYDFFARSGNYTEQLEHHHHHH	failed
MAVRKLGVLTSGGDCPGLNAVIRAIARHAVGNYGWELWGIAYATQGLLKRQAIALSPHHFDRQSLDPLLCSGGTILGSINRGDTLAHQAEILAGYQELGLDALIGIGGDGSLAILRQLAEAGRWQFIGIPKTIDNDVALTERAIGFDTAIHTVAEALLSLGSTAASHDRIMIAEVMGRQSGHLALQGGIAGGADVILLPEIPYRLLELCHYLQQLRDRWQRRYAVIAIAEGTHHPPEVTQGPGSLGEQLVQAITAQDPTLDARVTVLGHVQRGGNPVASDRLLATQMGYAAVERLAAGASGEMMAWQGGRVVSVPLEAVCLQSPTLVDPHSPLVDTAAGLGIFLGDRSLTPWRGSACPTH	failed
MAVSSLGNIYCAAAGFHSVPIVICQTSCVRWRGSGRTSGAICCAECVARGSDVRAYFRGQDKDAVGKDAVAPGVGCVQPVAIGIHAGLYRWRDRLRIGIDGDHARCRPDVAHGELDVGASAVPRRGSHGHRGRARAGGLVQELSVREQPPVDHRHLRAVLRLAGAAALLTQGRNAQGAVRELVCARYRHAVSGPRQPQGRGTGATSGGCVVAPGQTVVSVSRRHPQPHRRIIAIQGRATAGCYRCWRAGGSGGAGRLRQGVAGRWPVQGAPRHHPRADRYADRCDRAGCAGSPTIDRAGTQGRGCNASPQDLSSTLMDFVVPHDHPCLPGHFPGRPVVPGVVVLDHVLQAVEALHGPRAAARLPQVKFVQPLLPGQTASVTLEGDGPRWRFRVQRADVVLVSGELVAEAGT	failed
MAVSSNGGAIKAVIYDCDGVMFDSFEANLAFYQRIMEMMGRPRLSRDNEEQMRILHTYANREVLAHFFPSPGDWEEAVRCAGAIDYRELVPLMIMEEGFREALDTLKGRVGLGVCTNRSTSMDMVLRLFSLDSYFSIVMTASRVTNPKPHPEPLLKVLEHFGIGPREALFVGDSEVDRLSAEAAGVPFVAYKAPLPAAYRMEHHREIIDLLG	not failed
MAVTSPNMPASIRWGGIVALIQSTIGFGYAFFLIYREATGETDPSIVYETDNANTWVGYGTAAFFIIVFGTVVAGAINMMKGHRWGRGAVVMLNIILLPAAYYMFIEGRFSWAIVTGISALFVLGALFNKRAVLWANNEI	failed
MAVVGFDAAKISILDENEKVTDTFTIDRSSGGTIEANISGLAPNMNVVYASNVPFYVSAKGTSEVKCELTVADLDDLGTEAVNKILGREQDSTTKITKVGVNTTPPYCVLELISKDKQGKGLFLGLLKGKFTFDGEDMKTSDNNGSQLSEDKVTMQCISRKDGYIYAKAKEADGTTQADFEKFIMPAATAPAAG	failed
MAVYHLLLSSPPSLLLLPPSPRRPNLTLIRRIPAHPRLGNSTSLLSSSSPVIRKILVRSTLREDQPIASDSESSPTLLIGEDSAAFELGKQKLVSWVYFGVVLGVVLFILNVVWIDNSTGFGKSFIDAVSNISGSPEVAMLMLILIFAIVHSGLASLRDIGEKLIGERAFRVLFAGISLPLAMSTIVYFINHRYDGSQLWQLQGVPGVHEAIWVANFVSFFFLYPSTFNLLEVAAVDKPKMHLWETGIMRITRHPQMVGQIVWCLAHTLWIGNTVAASASLGLIAHHLFGAWNGDRRLAKRYGEDFESIKKRTSVIPFAAIFEGRQVLPEDYYKEFVRLPYLAITALTVGAYFAHPLMQGASFRLHW	failed
MAVYLDKEKPVSERVEDLLSKMTLAEKCGQLNQRMYGWEAFSRDGETFHITEKFKEEVTRFEGIGALYGLFRADPWSKMNKDTGVSRKNAGKVANKIQRYVIENTRLGIPVLLAEEVPHGHQALDSESYPVNLARAASFNPELQKQVASAITEEISEKGVHLALASALDILRDPRWGRAEECYGEDPYLAAELTAAITEGFQASGKIAVILKHFAAQGEPIGGHNSGPVSIGVRELREIFLEPMRAGIRSGALGVMAAYNEIDGVPCHANKELLTTILREEMGFSGIVMADGCALDRLLKLNPDPKKAAKMALEAGVDLSLWDEVFPFLEESVEKGILDEKVVDDAVRRVLQVKFQLGLFEQPFVEEEI	failed
